# Entries after “also recorded” stand apart in the source; their conditions may differ. Ends that are not written are not given here. * marks the point of attachment. FITC = O=C1OC2(c3ccc(O)cc3Oc3cc(O)ccc32)c2ccc(NC(=S)*)cc21; Biotin = O=C1N[C@H]2[C@H](CS[C@H]2CCCCC(=O)*)N1; βAla = NCCC(=O)O
# Key:
# [1] = molecular target: T1, GST-ARNO(wt) (Homo sapiens, UniProt Q99418); test: a2N-derived peptide pull-down assay with GST-ARNO(wt); type: binding; design: key to interaction with ARNO (asterisk mark in Table 1): The interacting peptides are indicated in bold with an asterisk (*)
# T1 construct: i) 1-400aa, full length ARNO(wt); made in house; host or cells: E. coli BL21(DE3)
# T1 sequence (Q99418 1-400): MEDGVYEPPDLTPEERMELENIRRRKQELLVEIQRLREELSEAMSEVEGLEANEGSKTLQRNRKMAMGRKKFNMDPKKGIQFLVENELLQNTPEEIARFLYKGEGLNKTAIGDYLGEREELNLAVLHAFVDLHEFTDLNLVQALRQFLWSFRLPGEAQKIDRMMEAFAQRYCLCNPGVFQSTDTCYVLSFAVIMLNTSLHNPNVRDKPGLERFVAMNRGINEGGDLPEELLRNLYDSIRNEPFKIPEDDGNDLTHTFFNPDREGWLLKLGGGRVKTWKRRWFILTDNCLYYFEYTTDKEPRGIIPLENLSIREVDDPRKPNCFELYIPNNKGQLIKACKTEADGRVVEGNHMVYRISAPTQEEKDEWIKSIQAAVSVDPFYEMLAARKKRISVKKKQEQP
# Method: FIG. 2A is an image of a Western blot showing the results of an a2N-derived peptide pull-down assay. The indicated a2N-derived peptides were immobilized on streptavidin-beads and incubated with purified recombinant GST-ARNO(wt). Interacting complexes were eluted and analyzed by Western blotting using monoclonal anti-GST antibodies.
# FIG. 2B is an image of a Western blot showing the results of a pull-down assay with selected a2N-derived interacting peptides incubated with either GST (negative control) or GST-ARNO(wt). The first two lanes show the patterns obtained when either GST-only (lane 1) or GST-ARNO(wt) (lane 2) were loaded onto the gel.
# Peptides were synthesized, purified by HPLC and analyzed by mass spectrometry in the MGH Peptide/Protein Core Facility. All a2N-derived peptides were synthesized with a biotin-tag on the N-terminus for immobilization on streptavidin-agarose beads and with an additional C-terminal cysteine residue for immobilization on beads using sulfhydryl-specific crosslinkers. A peptide corresponding to the PB-domain of ARNO was synthesized containing either a non-phosphorylated or a phosphorylated Ser392 residue. Peptide stock solutions were prepared in DMSO at 5 mM concentration and stored at −20° C. […]
# [2] = molecular target: T2, PB-domain of ARNO (Homo sapiens, UniProt Q99418); test: a2N-derived peptide pull-down with GST-PB domain; type: binding
# T2 construct: v) 379-400aa, polybasic (PB) domain; made in house; host or cells: E. coli BL21(DE3)
# Method: (§1) FIGS. 5A-C are a set of three images of Western blots showing the identification of interaction motif of a2N that is involved in specific binding with the Sec7 domain of ARNO. 5A, The catalytic Sec7 domain of ARNO interacts with two a2N-derived peptides, a2N-01 and a2N-03, in pull-down experiments. The peptide pull-down assay was performed with six a2N-derived interaction peptides immobilized on streptavidin-beads and incubated with purified recombinant GST-only or GST-Sec7 domain. Interacting complexes were eluted and analyzed by Western blotting using monoclonal anti-GST antibodies as described below. The loading controls for GST-only (lane 1) or GST-Sec7 (lane 2) are shown. […] The peptide pull-down assay was performed with peptides a2N-01 and a2N-03 immobilized on streptavidin-beads and incubated with purified recombinant GST-PH domain (5B) or GST-PB domain (5C). Interacting complexes were eluted and analyzed by Western blotting using monoclonal anti-GST antibodies. […]
# (§2) These a2N-derived peptides were immobilized by an N-terminal biotin-tag, which ensured the same efficiency and equivalent binding to streptavidin-agarose beads. […] After washing beads four times in ice-cold binding buffer, the interacting complexes were eluted by boiling in SDS-PAGE sample buffer for 10 min at 95° C., resolved by SDS-PAGE and analyzed by Western blotting using monoclonal anti-GST antibody. […]
# [3] = molecular target: T3, PH-domain of ARNO (Homo sapiens, UniProt Q99418); test: a2N-derived peptide pull-down with GST-PH domain; type: binding
# T3 construct: iv) 253-378aa, plekstrin-homology (PH) domain; made in house; host or cells: E. coli BL21(DE3)
# T3 sequence (Q99418 253-378): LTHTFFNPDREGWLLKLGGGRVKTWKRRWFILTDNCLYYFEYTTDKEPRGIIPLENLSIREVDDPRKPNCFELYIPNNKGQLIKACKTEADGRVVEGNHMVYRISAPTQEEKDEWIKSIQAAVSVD
# Method: as §1, §2
# [4] = molecular target: T4, Sec7-domain of ARNO (Homo sapiens, UniProt Q99418); test: a2N-derived peptide pull-down with GST-Sec7 domain; type: binding; settings: GST-Sec7-6His
# T4 construct: iii) 61-252aa, Sec7 domain; GST (N, cleaved yes); made in house; host or cells: E. coli BL21(DE3)
# T4 sequence (Q99418 61-252): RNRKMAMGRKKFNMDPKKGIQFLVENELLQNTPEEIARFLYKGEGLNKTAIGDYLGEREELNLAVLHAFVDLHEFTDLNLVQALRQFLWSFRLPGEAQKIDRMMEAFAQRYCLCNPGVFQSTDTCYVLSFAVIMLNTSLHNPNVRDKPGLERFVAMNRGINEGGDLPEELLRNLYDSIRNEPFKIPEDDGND
# Method: as §1
# These a2N-derived peptides were immobilized by an N-terminal biotin-tag, which ensured the same efficiency and equivalent binding to streptavidin-agarose beads. […] After washing beads four times in ice-cold binding buffer, the interacting complexes were eluted by boiling in SDS-PAGE sample buffer for 10 min at 95° C., resolved by SDS-PAGE and analyzed by Western blotting using monoclonal anti-GST antibody.
# [5] = molecular target: Sec7-6His recombinant protein (human) (UniProt Q99418); test: SPR (BIAcore T100), biotinylated a2N-01 captured on neutravidin, Sec7-6His as analyte, 1:1 fit
# [6] = molecular target: T5, GST-only (UniProt P08515 1-218 = GST); test: peptide pull-down: biotinylated peptide on streptavidin beads, GST-only in solution, Western blot with anti-GST antibody
# T5 construct: Control bait/prey in pull-down assays; also called GST (negative control)
# [7] = molecular target: Sec7-6His recombinant protein (human) (UniProt Q99418); test: calculated from the SPR KD (deltaG = RT ln KD)
# [8] = molecular target: T6, recombinant ARNO (human, UniProt Q99418 1-400, limits assumed); test: cell-based or functional assay
# T6 sequence (looked up): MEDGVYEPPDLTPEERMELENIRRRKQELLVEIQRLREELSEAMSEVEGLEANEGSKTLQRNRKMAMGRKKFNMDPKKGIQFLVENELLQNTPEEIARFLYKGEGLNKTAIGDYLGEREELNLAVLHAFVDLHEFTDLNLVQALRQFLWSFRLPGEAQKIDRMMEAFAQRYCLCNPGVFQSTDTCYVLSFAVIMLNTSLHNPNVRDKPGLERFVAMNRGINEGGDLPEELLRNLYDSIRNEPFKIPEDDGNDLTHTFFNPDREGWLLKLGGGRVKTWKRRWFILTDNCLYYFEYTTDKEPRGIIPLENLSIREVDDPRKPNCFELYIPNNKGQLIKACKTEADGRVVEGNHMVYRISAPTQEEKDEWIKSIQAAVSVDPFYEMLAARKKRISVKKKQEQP
# T5 sequence (P08515 whole entry): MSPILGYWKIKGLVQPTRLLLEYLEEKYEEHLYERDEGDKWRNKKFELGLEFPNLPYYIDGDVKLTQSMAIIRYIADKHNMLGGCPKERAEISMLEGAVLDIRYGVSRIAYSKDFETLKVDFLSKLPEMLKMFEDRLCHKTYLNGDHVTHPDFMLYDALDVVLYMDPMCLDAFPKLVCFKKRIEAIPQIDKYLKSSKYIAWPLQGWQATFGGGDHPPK
molecule,measurement,setting,value
"Bio-VQFRDLNQNVSSFQR-Cys (VQFRDLNQNVSSFQRC) [a2N-03, AA 35-49 of a2N]",interaction of a2N-derived peptide with GST-ARNO(wt) in pull-down,"[1]; Western blot anti-GST, GST-only as control",specific interaction; also recorded: capable of interaction with ARNO
same,interaction with ARNO (asterisk mark in Table 1),[1]; biotin-tagged peptides on streptavidin beads,Bio-VQFRDLNQNVSSFQR-Cys *
same,interaction with PB-domain of ARNO,[2],interacts equally well
same,interaction with PH-domain of ARNO,[3],interacts equally well
same,interaction with Sec7-domain of ARNO,[4],interacts
"Biotin-MGSLFRSESMCLAQLFLC (cysteine pairing not given here, Synthetic peptide from the mouse V-ATPase a2-subunit N-terminal tail; Bio- at N-terminus, extra Cys at C-terminus; also called a2N1-17; biotinylated a2N-01 peptide) [a2N-01]",Kd,[5],344 nM
same,koff,[5],0.00086 s⁻¹
same,kon,[5],2500 M⁻¹ s⁻¹
same,binding result,[6],no binding
same,free energy of binding,[7],-8.81 kcal/mol
{FITC-βAla}-MGSLFRSESMCLAQLFLYGRKKRRQRRR [FITC-a2N-01-TAT],"IC50 of inhibition of ARNO's GEF activity (radiolabel GDP/GTP-exchange assay, 5% PIP2 vesicles)",[8],~700 nM

# From patent US20140162285A1, “Methods of Modulating Vesicular Trafficking” (The General Hospital Corporation, priority 2009, published 2014)
